Data as given in paper PMC11900867.
Where two headings read alike, the source gives them in different places.

How the values were obtained:
[1] = biological target: Coxsackievirus B3 (CVB3) 3CD protein (uncleaved 3C^pro-3D^pol) with Cys147Ala, Gly55Ala, Asp58Ala, Val63Ala (coxsackievirus B3 (CVB3)); assay: mass photometry
[2] = biological target: Coxsackievirus B3 (CVB3) 3CD protein (uncleaved 3C^pro-3D^pol) with Cys147Ala, Gly55Ala, Asp58Ala, Val63Ala (coxsackievirus B3 (CVB3)); assay: mass photometry; remark: listed apart in the source
[3] = biological target: Coxsackievirus B3 (CVB3) 3C^pro protease, protease-inactive mutant (Cys147Ala) with Gly55Ala, Asp58Ala, Val63Ala (coxsackievirus B3 (CVB3)); assay: mass photometry
[4] = biological target: Coxsackievirus B3 (CVB3) 3C^pro protease, protease-inactive mutant (Cys147Ala) with Gly55Ala, Asp58Ala, Val63Ala (coxsackievirus B3 (CVB3)); assay: SEC

Substance | stoichiometry N [1] | percent of total counts in the peak of 3CD dimer with one cloverleaf RNA [2] | stoichiometry N [2] | stoichiometry N [3] | stoichiometry N [4]
Coxsackievirus B3 (CVB3) 3CD protein (uncleaved 3C^pro-3D^pol) with Cys147Ala, Gly55Ala, Asp58Ala, Val63Ala (enzyme) | 2 | 19 to 23% | 2 | – | –
Coxsackievirus B3 (CVB3) 3C^pro protease, protease-inactive mutant (Cys147Ala) with Gly55Ala, Asp58Ala, Val63Ala (enzyme) | – | – | – | 2 | 2
